In paper PMC3087822 (Nature structural & molecular biology, 2011):

B1: human SNAP25 (residues 11–82) (domain or fragment)
chain: LEEMQRRADQLADESLESTRRMLQLVEESKDAGIRTLVMLDEQGEQLERIEEGMDQINKDMKEAEKNLTDLG

Assays:
[1] = target: rat Munc13-1(859–1407,1453–1531) fragment (MUN*) (rat) (UniProt Q62768); experiment: NMR titration
[2] = target: cytoplasmic domain (residues 2–253) of rat syntaxin-1A (rat, UniProt P32851 2-253); experiment: SEC

Row | Molecule | Kd [1] [µM] | binding result [2]
1 | Munc18-1–SNARE complex assembly (Munc18-1 plus SNARE complex as titrated on 15N-MUN*) (from UniProt P32851;P63045;P60880) | 13 | 
2 | B1 |  | binds
